Numbered stars: 1 amine (or outer) side, 2 acyl side, 3 side chain; on linkers, the order of the positions; unused ones are H or OH. Bridge positions count the residues as written; N and C are the ends. Side chains are listed from the residue outwards. Ends that are not written are not given here. * marks the point of attachment. C20 diacid = O=C(O)CCCCCCCCCCCCCCCCCCC(=O)*; γGlu = O=C(O)[C@H](CCC(=O)[*:2])N[*:1]; AEEA = NCCOCCOCC(=O)O

The results in this text go back to US20140087995A1 (published 2014).

This test has as its target T1, human amylin receptor (human, UniProt P30988 25-474; O60896 24-148, limits assumed).
T1 construct: whole, on cells; Calcitonin receptor plus RAMP-3 gives the amylin 3(a) receptor; membranes of Amylin 3(a)/CRE-luc cells were used; also called hAmylin-R; hAmylinR
T1 sequence (looked up) 1: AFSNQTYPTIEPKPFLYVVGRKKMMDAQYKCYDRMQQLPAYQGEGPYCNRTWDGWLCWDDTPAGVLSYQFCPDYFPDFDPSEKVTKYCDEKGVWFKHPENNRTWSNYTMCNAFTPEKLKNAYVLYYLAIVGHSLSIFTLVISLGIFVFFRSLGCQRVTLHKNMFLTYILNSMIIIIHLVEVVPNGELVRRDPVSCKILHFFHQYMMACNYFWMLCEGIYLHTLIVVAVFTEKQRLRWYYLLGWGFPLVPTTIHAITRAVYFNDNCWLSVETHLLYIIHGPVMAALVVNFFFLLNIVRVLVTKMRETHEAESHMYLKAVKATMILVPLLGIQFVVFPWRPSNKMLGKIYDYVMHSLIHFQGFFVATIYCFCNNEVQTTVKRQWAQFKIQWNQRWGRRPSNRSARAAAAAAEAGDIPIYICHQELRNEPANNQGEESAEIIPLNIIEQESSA
T1 sequence (looked up) 2: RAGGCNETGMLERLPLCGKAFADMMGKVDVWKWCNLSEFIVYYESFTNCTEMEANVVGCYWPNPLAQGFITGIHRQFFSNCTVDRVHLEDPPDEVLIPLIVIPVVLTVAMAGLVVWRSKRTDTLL
In words: SPA competition binding, displacement of 125I-rat amylin from membranes with human amylin 3(a) receptor (Assay V). An outline of the steps:
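SPA beads with BHK Amylin 3(a)/CRE-luc cell membranes (35 ng/μL final) in 50 mM Hepes pH 7.4, 1 mM CaCl2, 5 mM MgCl₂, 0.1% OA, 0.02% Tween20.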

B1: N^ε1-[2-[2-[2-[[(4S)-4-carboxy-4-(19-carboxynonadecanoylamino)butanoyl]amino]ethoxy]ethoxy]acetyl]-[Arg17,Pro21,Pro27,Pro34,His35]-h-amylin (peptide)
peptide: K([AEEA-γGlu-C20 diacid])CNTATCATQRLANFLRHSSPNFGAIPSSTNVGPHTY-NH2
modifications: disulfide 2-7; N-terminus assumed
SMILES: CC[C@H](C)[C@H](NC(=O)[C@H](C)NC(=O)CNC(=O)[C@H](Cc1ccccc1)NC(=O)[C@H](CC(N)=O)NC(=O)[C@@H]1CCCN1C(=O)[C@H](CO)NC(=O)[C@H](CO)NC(=O)[C@H](Cc1c[nH]cn1)NC(=O)[C@H](CCCNC(=N)N)NC(=O)[C@H](CC(C)C)NC(=O)[C@H](Cc1ccccc1)NC(=O)[C@H](CC(N)=O)NC(=O)[C@H](C)NC(=O)[C@H](CC(C)C)NC(=O)[C@H](CCCNC(=N)N)NC(=O)[C@H](CCC(N)=O)NC(=O)[C@@H](NC(=O)[C@H](C)NC(=O)[C@@H]1CSSC[C@H](NC(=O)[C@@H](N)CCCCNC(=O)COCCOCCNC(=O)CC[C@H](NC(=O)CCCCCCCCCCCCCCCCCCC(=O)O)C(=O)O)C(=O)N[C@@H](CC(N)=O)C(=O)N[C@@H]([C@@H](C)O)C(=O)N[C@@H](C)C(=O)N[C@@H]([C@@H](C)O)C(=O)N1)[C@@H](C)O)C(=O)N1CCC[C@H]1C(=O)N[C@@H](CO)C(=O)N[C@@H](CO)C(=O)N[C@H](C(=O)N[C@@H](CC(N)=O)C(=O)N[C@H](C(=O)NCC(=O)N1CCC[C@H]1C(=O)N[C@@H](Cc1c[nH]cn1)C(=O)N[C@H](C(=O)N[C@@H](Cc1ccc(O)cc1)C(N)=O)[C@@H](C)O)C(C)C)[C@@H](C)O
notes: also called 17R, 21P, 27P, 34P, 35H
In general, IC50 refers to the concentration at which inhibition is half-maximal. A higher IC50 goes with weaker potency in that assay. As to B1, the IC50 turned out to be 0.088 nM.

B2: N^ε1-[2-[2-[2-[[(4S)-4-carboxy-4-(19-carboxynonadecanoylamino)butanoyl]amino]ethoxy]ethoxy]acetyl]-[Arg17,Pro21,Pro27,Pro34]-h-amylin (peptide)
peptide: K([AEEA-γGlu-C20 diacid])CNTATCATQRLANFLRHSSPNFGAIPSSTNVGPNTY-NH2
modifications: disulfide 2-7; N-terminus assumed
SMILES: CC[C@H](C)[C@H](NC(=O)[C@H](C)NC(=O)CNC(=O)[C@H](Cc1ccccc1)NC(=O)[C@H](CC(N)=O)NC(=O)[C@@H]1CCCN1C(=O)[C@H](CO)NC(=O)[C@H](CO)NC(=O)[C@H](Cc1c[nH]cn1)NC(=O)[C@H](CCCNC(=N)N)NC(=O)[C@H](CC(C)C)NC(=O)[C@H](Cc1ccccc1)NC(=O)[C@H](CC(N)=O)NC(=O)[C@H](C)NC(=O)[C@H](CC(C)C)NC(=O)[C@H](CCCNC(=N)N)NC(=O)[C@H](CCC(N)=O)NC(=O)[C@@H](NC(=O)[C@H](C)NC(=O)[C@@H]1CSSC[C@H](NC(=O)[C@@H](N)CCCCNC(=O)COCCOCCNC(=O)CC[C@H](NC(=O)CCCCCCCCCCCCCCCCCCC(=O)O)C(=O)O)C(=O)N[C@@H](CC(N)=O)C(=O)N[C@@H]([C@@H](C)O)C(=O)N[C@@H](C)C(=O)N[C@@H]([C@@H](C)O)C(=O)N1)[C@@H](C)O)C(=O)N1CCC[C@H]1C(=O)N[C@@H](CO)C(=O)N[C@@H](CO)C(=O)N[C@H](C(=O)N[C@@H](CC(N)=O)C(=O)N[C@H](C(=O)NCC(=O)N1CCC[C@H]1C(=O)N[C@@H](CC(N)=O)C(=O)N[C@H](C(=O)N[C@@H](Cc1ccc(O)cc1)C(N)=O)[C@@H](C)O)C(C)C)[C@@H](C)O
notes: also called 17R, 21P, 27P, 34P
In turn, B2 displayed an IC50 of 0.038 nM.

B3: N^ε1-[2-[2-[2-[[(4S)-4-carboxy-4-(19-carboxynonadecanoylamino)butanoyl]amino]ethoxy]ethoxy]acetyl]-[Gly14,Arg17,Pro21,Pro27,Pro31]-h-amylin (peptide)
peptide: K([AEEA-γGlu-C20 diacid])CNTATCATQRLAGFLRHSSPNFGAIPSSTPVGSNTY-NH2
modifications: disulfide 2-7; N-terminus assumed
SMILES: CC[C@H](C)[C@H](NC(=O)[C@H](C)NC(=O)CNC(=O)[C@H](Cc1ccccc1)NC(=O)[C@H](CC(N)=O)NC(=O)[C@@H]1CCCN1C(=O)[C@H](CO)NC(=O)[C@H](CO)NC(=O)[C@H](Cc1c[nH]cn1)NC(=O)[C@H](CCCNC(=N)N)NC(=O)[C@H](CC(C)C)NC(=O)[C@H](Cc1ccccc1)NC(=O)CNC(=O)[C@H](C)NC(=O)[C@H](CC(C)C)NC(=O)[C@H](CCCNC(=N)N)NC(=O)[C@H](CCC(N)=O)NC(=O)[C@@H](NC(=O)[C@H](C)NC(=O)[C@@H]1CSSC[C@H](NC(=O)[C@@H](N)CCCCNC(=O)COCCOCCNC(=O)CC[C@H](NC(=O)CCCCCCCCCCCCCCCCCCC(=O)O)C(=O)O)C(=O)N[C@@H](CC(N)=O)C(=O)N[C@@H]([C@@H](C)O)C(=O)N[C@@H](C)C(=O)N[C@@H]([C@@H](C)O)C(=O)N1)[C@@H](C)O)C(=O)N1CCC[C@H]1C(=O)N[C@@H](CO)C(=O)N[C@@H](CO)C(=O)N[C@H](C(=O)N1CCC[C@H]1C(=O)N[C@H](C(=O)NCC(=O)N[C@@H](CO)C(=O)N[C@@H](CC(N)=O)C(=O)N[C@H](C(=O)N[C@@H](Cc1ccc(O)cc1)C(N)=O)[C@@H](C)O)C(C)C)[C@@H](C)O
notes: also called 14G, 17R, 21P, 27P, 31P
Turning to B3, the IC50 was 0.048 nM. The IC50 values of the last two molecules are within 1.5-fold of each other.

B4: N^ε1-[2-[2-[2-[[(4S)-4-carboxy-4-(19-carboxynonadecanoylamino)butanoyl]amino]ethoxy]ethoxy]acetyl]-[His14,Arg17,Pro21,Pro27,Pro31]-h-amylin (peptide)
peptide: K([AEEA-γGlu-C20 diacid])CNTATCATQRLAHFLRHSSPNFGAIPSSTPVGSNTY-NH2
modifications: disulfide 2-7; N-terminus assumed
SMILES: CC[C@H](C)[C@H](NC(=O)[C@H](C)NC(=O)CNC(=O)[C@H](Cc1ccccc1)NC(=O)[C@H](CC(N)=O)NC(=O)[C@@H]1CCCN1C(=O)[C@H](CO)NC(=O)[C@H](CO)NC(=O)[C@H](Cc1c[nH]cn1)NC(=O)[C@H](CCCNC(=N)N)NC(=O)[C@H](CC(C)C)NC(=O)[C@H](Cc1ccccc1)NC(=O)[C@H](Cc1c[nH]cn1)NC(=O)[C@H](C)NC(=O)[C@H](CC(C)C)NC(=O)[C@H](CCCNC(=N)N)NC(=O)[C@H](CCC(N)=O)NC(=O)[C@@H](NC(=O)[C@H](C)NC(=O)[C@@H]1CSSC[C@H](NC(=O)[C@@H](N)CCCCNC(=O)COCCOCCNC(=O)CC[C@H](NC(=O)CCCCCCCCCCCCCCCCCCC(=O)O)C(=O)O)C(=O)N[C@@H](CC(N)=O)C(=O)N[C@@H]([C@@H](C)O)C(=O)N[C@@H](C)C(=O)N[C@@H]([C@@H](C)O)C(=O)N1)[C@@H](C)O)C(=O)N1CCC[C@H]1C(=O)N[C@@H](CO)C(=O)N[C@@H](CO)C(=O)N[C@H](C(=O)N1CCC[C@H]1C(=O)N[C@H](C(=O)NCC(=O)N[C@@H](CO)C(=O)N[C@@H](CC(N)=O)C(=O)N[C@H](C(=O)N[C@@H](Cc1ccc(O)cc1)C(N)=O)[C@@H](C)O)C(C)C)[C@@H](C)O
notes: also called 14H, 17R, 21P, 27P, 31P
In the case of B4, the half-inhibitory concentration (IC50) came out at 0.122 nM.

B5: N^ε1-[2-[2-[2-[[(4S)-4-carboxy-4-(19-carboxynonadecanoylamino)butanoyl]amino]ethoxy]ethoxy]acetyl]-[His14,Arg17,Pro21,Pro27,Arg34]-h-amylin (peptide)
peptide: K([AEEA-γGlu-C20 diacid])CNTATCATQRLAHFLRHSSPNFGAIPSSTNVGRNTY-NH2
modifications: disulfide 2-7; N-terminus assumed
SMILES: CC[C@H](C)[C@H](NC(=O)[C@H](C)NC(=O)CNC(=O)[C@H](Cc1ccccc1)NC(=O)[C@H](CC(N)=O)NC(=O)[C@@H]1CCCN1C(=O)[C@H](CO)NC(=O)[C@H](CO)NC(=O)[C@H](Cc1c[nH]cn1)NC(=O)[C@H](CCCNC(=N)N)NC(=O)[C@H](CC(C)C)NC(=O)[C@H](Cc1ccccc1)NC(=O)[C@H](Cc1c[nH]cn1)NC(=O)[C@H](C)NC(=O)[C@H](CC(C)C)NC(=O)[C@H](CCCNC(=N)N)NC(=O)[C@H](CCC(N)=O)NC(=O)[C@@H](NC(=O)[C@H](C)NC(=O)[C@@H]1CSSC[C@H](NC(=O)[C@@H](N)CCCCNC(=O)COCCOCCNC(=O)CC[C@H](NC(=O)CCCCCCCCCCCCCCCCCCC(=O)O)C(=O)O)C(=O)N[C@@H](CC(N)=O)C(=O)N[C@@H]([C@@H](C)O)C(=O)N[C@@H](C)C(=O)N[C@@H]([C@@H](C)O)C(=O)N1)[C@@H](C)O)C(=O)N1CCC[C@H]1C(=O)N[C@@H](CO)C(=O)N[C@@H](CO)C(=O)N[C@H](C(=O)N[C@@H](CC(N)=O)C(=O)N[C@H](C(=O)NCC(=O)N[C@@H](CCCNC(=N)N)C(=O)N[C@@H](CC(N)=O)C(=O)N[C@H](C(=O)N[C@@H](Cc1ccc(O)cc1)C(N)=O)[C@@H](C)O)C(C)C)[C@@H](C)O
notes: also called 14H, 17R, 21P, 27P, 34R
As to B5, the 50% inhibitory concentration (IC50) was found to be 0.743 nM. Compared with the last molecule, the IC50 is about 6.1-fold higher.

B6: N^ε1-[2-[2-[2-[[(4S)-4-carboxy-4-(19-carboxynonadecanoylamino)butanoyl]amino]ethoxy]ethoxy]acetyl]-[His14,Arg17,Pro21,Pro27,His34]-h-amylin (peptide)
peptide: K([AEEA-γGlu-C20 diacid])CNTATCATQRLAHFLRHSSPNFGAIPSSTNVGHNTY-NH2
modifications: disulfide 2-7; N-terminus assumed
SMILES: CC[C@H](C)[C@H](NC(=O)[C@H](C)NC(=O)CNC(=O)[C@H](Cc1ccccc1)NC(=O)[C@H](CC(N)=O)NC(=O)[C@@H]1CCCN1C(=O)[C@H](CO)NC(=O)[C@H](CO)NC(=O)[C@H](Cc1c[nH]cn1)NC(=O)[C@H](CCCNC(=N)N)NC(=O)[C@H](CC(C)C)NC(=O)[C@H](Cc1ccccc1)NC(=O)[C@H](Cc1c[nH]cn1)NC(=O)[C@H](C)NC(=O)[C@H](CC(C)C)NC(=O)[C@H](CCCNC(=N)N)NC(=O)[C@H](CCC(N)=O)NC(=O)[C@@H](NC(=O)[C@H](C)NC(=O)[C@@H]1CSSC[C@H](NC(=O)[C@@H](N)CCCCNC(=O)COCCOCCNC(=O)CC[C@H](NC(=O)CCCCCCCCCCCCCCCCCCC(=O)O)C(=O)O)C(=O)N[C@@H](CC(N)=O)C(=O)N[C@@H]([C@@H](C)O)C(=O)N[C@@H](C)C(=O)N[C@@H]([C@@H](C)O)C(=O)N1)[C@@H](C)O)C(=O)N1CCC[C@H]1C(=O)N[C@@H](CO)C(=O)N[C@@H](CO)C(=O)N[C@H](C(=O)N[C@@H](CC(N)=O)C(=O)N[C@H](C(=O)NCC(=O)N[C@@H](Cc1c[nH]cn1)C(=O)N[C@@H](CC(N)=O)C(=O)N[C@H](C(=O)N[C@@H](Cc1ccc(O)cc1)C(N)=O)[C@@H](C)O)C(C)C)[C@@H](C)O
notes: also called 14H, 17R, 21P, 27P, 34H
In turn, B6 had a 50% inhibitory concentration (IC50) of 0.29 nM.
